Patent publication US20100273160A1

Molecular target: T1, MIS type II receptor (MISRII) on mouse ovarian cancer cell lines MOVCAR 7 and 4306 (mouse) (UniProt Q8K592)
T1 sequence (looked up): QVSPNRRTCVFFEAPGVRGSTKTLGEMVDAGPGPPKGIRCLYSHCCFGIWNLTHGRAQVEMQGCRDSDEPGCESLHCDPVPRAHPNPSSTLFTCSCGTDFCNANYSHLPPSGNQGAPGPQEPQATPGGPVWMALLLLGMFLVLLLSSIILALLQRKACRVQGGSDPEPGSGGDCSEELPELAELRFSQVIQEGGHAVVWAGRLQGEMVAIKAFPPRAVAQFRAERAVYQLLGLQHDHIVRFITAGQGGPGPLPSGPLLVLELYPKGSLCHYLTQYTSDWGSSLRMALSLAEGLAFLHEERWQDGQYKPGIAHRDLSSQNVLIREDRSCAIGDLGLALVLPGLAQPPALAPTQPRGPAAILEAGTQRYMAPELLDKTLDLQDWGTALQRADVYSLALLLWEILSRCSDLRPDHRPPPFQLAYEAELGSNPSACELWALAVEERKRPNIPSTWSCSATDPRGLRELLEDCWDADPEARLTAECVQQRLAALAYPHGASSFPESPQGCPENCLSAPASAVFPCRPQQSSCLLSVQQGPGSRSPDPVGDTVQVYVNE
Assay: cell-based or functional assay

B1: recombinant human Mullerian Inhibiting Substance (MIS) (ligand)
chain: LRAEEPAVGTSGLIFREDLDWPPGSPQEPLCLVALGGDSNGSSSPLRVVGALSAYEQAFLGAVQRARWGPRDLATFGVCNTGDRQAALPSLRRLGAWLRDPGGQRLVVLHLEEVTWEPTPSLRFQEPPPGGAGPPELALLVLYPGPGPEVTVTRAGLPGAQSLCPSRDTRYLVLAVDRPAGAWRGSGLALTLQPRGEDSRLSTARLQALLFGDDHRCFTRMTPALLLLPRSEPAPLPAHGQLDTVPFPPPRPSAELEESPPSADPFLETLTRLVRALRVPPARASAPRLALDPDALAGFPQGLVNLSDPAALERLLDGEEPLLLLLRPTAATTGDPAPLHDPTSAPWATALARRVAAELQAAAAELRSLPGLPPATAPLLARLLALCPGGPGGLGDPLRALLLLKALQGLRVEWRGRDPRGPGRAQRSAGATAADGPCALRELSVDLRAERSVLIPETYQANNCQGVCGWPQSDRNPRYGNHVVLLLKMQARGAALARPPCCVPTAYAGKLLISLSEERISAHHVPNMVATECGCR
  MTT proliferation assay, 4306 SP cells after first sort, 10 µg/ml MIS, inhibition versus vehicle: 37%
  MTT proliferation assay, 4306 SP cells after sort 2, MIS, inhibition: 60%
  MTT proliferation assay, 4306 SP cells after sort 3, MIS, inhibition (not significant): 17%
  MTT proliferation assay, MOVCAR 7 NSP cells after first sort, 10 µg/ml MIS, inhibition versus vehicle: 93%
  MTT proliferation assay, MOVCAR 7 SP cells after first sort, 10 µg/ml MIS, inhibition versus vehicle: 86%
  MTT proliferation assay, MOVCAR 7 SP cells after sort 2, MIS, inhibition: 93%
  MTT proliferation assay, MOVCAR 7 SP cells after sort 3, MIS, inhibition: 94%
